# From the RNAGym collection of RNA variant scans (doi:10.1073/pnas.2313332121)
# B1: TPR t1 (parent)
# chain: GACCAAUCUGCCCUCAGAGCUCGAGAACAUCUUCGGAUGCAGAGGAGGCAGGCUUCGGUGGCGCGAUAGCGCCAACGUCCUCAACCUCCAAUGCAUCCCACCACAUGAUGAUGCCUGAAGAGCCUUGGUUUUUUG
# Variants of: B1
# Test: polymerase ribozyme fitness, log enrichment relative to wild type (log ratio); higher = more active; in vitro selection for triplet polymerase activity
# Outline: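 Frozen incubation at −7 °C formed the core of a single, triplicate in vitro selection round applied to PCR-built, transcribed mutant libraries of each subunit of a heterodimeric triplet polymerase ribozyme. Extended constructs were gel-excised, captured with streptavidin beads and amplified by RT-PCR, and input and output libraries were Illumina-sequenced with a filter of ≥10 input reads and ≥1 read per output. Fitness is the logarithm of genotype enrichment relative to wild-type enrichment, with inverse-variance-weighted replicate averaging, and the logarithm is base 2.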
row,Variant,polymerase ribozyme fitness (log ratio)
1,GACCAAACUGCCCUCAGAGCUCGAGAACAUCUUCGGAUGCAGACGAGGCAGGCUUCGGUGGCGCGAUAGCGCCAACGUCCUCAACCUCCAAUGCAUCCCACCACAUGAUGAUGCCUGAAGAGCGUUGGGUUUUUU [U7A G44C C124G U129G G135U],-0.681
2,GACCAAACUGCCCUCAGAGCUCGAGAACAUCUUCGGAUGCAGAGGAGCCAGGCUUCGGUGGCGCGAUAGCGCCUACGUCCUCAACCUCCAAUGCAUCCCACCACAUGAUGAUACCUGAAGAGCCUUGGUCUUGUG [U7A G48C A74U G113A U130C U133G],-1.3
3,GACCAAACUGCCCUCAGAGCUCGAGAACAUCUUCGGAUGCAGAGGAGGCAGGCUUCGGUGGCGCGAUAGCGCGAACGUCCUCAACCUCCAAUGCAUCCCACCACAUGAUGAUGCCUGAAGAGCCUUGGUUUUUUG [U7A C73G],-1.63
4,GACCAAACUGCCCUCAGAGCUCGAGAACAUCUUCGGAUGCAGAGGAGGCAGGCUUCGGUGGCGCGAUAGCCCCAACGUCCGCAACCUCCAAUGCAUCCCACCACAUGAUGAUGCCUGAAGAGCCUUGGUUUUUUG [U7A G71C U81G],-5.8
5,GACCAAACUGCCCUCAGAGCUCGAGAACAUCUACGGAUGCAGAGGAGGCAGGCUUCGGUGGCGCGAUAGCGCCAACGUCCUCAACCUCCAAUGCAUCCCACCACAUGAUGAUGCCUGAAGAGCCUUGGUUUUUUG [U7A U33A],-3.98
6,GACCAAACUGCCCUCAGAGCUCGAGAACAUCUUCGGAUGCAGAGGAGUCAGGCUUCGGUGGCGCGAUAGCGCCAACGUCCUCAACCUCCAAUGAAUUCCACCACAUGAUGAUGCCUGAAGAGCCUUGGUUUUUUG [U7A G48U C94A C97U],-2.33
7,GACCAAACUGCCCUCAGAGCUCGAGAACAUCUUCGGAUGCAGAGGAGGCAGGCUUCGGUGGCGCGAUAGCGCCAACGUGCUCAACCUGCAAUGCAUCCCACCACAUGAUGAAGCCUGAAGAGCCUUGGUUUUUUG [U7A C79G C88G U112A],-1.87
8,GACCAAACUGCCCUCAGAGCUCGAGAACAUCUUCGGAUGCAGAGGAGGCAGGCUUCGGUGGCGCGAUAGCGCCAACGUCCUCAACCUCCAAUGCAUCCCACCACAAGAUGAUGCCUGAAGAGCAUUGGUUUUUUG [U7A U106A C124A],1.98
9,GACCAAACUGCCCUCAUAGCUCGAGAACAUCUUCGGAUGCAGAGGAGGCAGGCUUCGGUGGCGCGAUAGCGCCUACGUCCUCAACCUCCAAUGCAUCCCACCACAUGAUGAUGCCUAGAGAGCCUUGGUUUUUUG [U7A G17U A74U G117A A118G],-4.25
10,GACCAAACUGCCCUCAGAGCUCGAGAACAUCUUCGGAUGCAGAGGAGGCAGGCUUCGGUGGCGCGAUAGCGCCAACGUCCUCAACCACGAAUGCAUCCCACCACAUGAUGAUGCCUGAAGAGCCUUGGUUUUUUG [U7A U87A C89G],-1.86
11,GACCAACUUGCCCUCAGAGCUCGAGAACAUCUUGGGAUGCAGAGGAGGCAGGCUUCGGUGGCGCGAUAGCGCCAACGUCCUCAACCUCCAAUGCAUCCCACCACAUGAUGAUGCCUGAAGAGCCUUGGUUUUUUG [U7C C8U C34G],-6.08
12,GACCAAACUGCCCUCAGAGCUCGAGAACAUCUUCGGAUGCAGAGGAGGCAGGCUUCGGUGGCGCGAUAGCGCCAACGUCCUCAACCUCCAAUGCAUCCCACCACAUGAUGAUUCCUGAAGAGCCUUGGUUUUUUG [U7A G113U],-2.15
13,GACCAACCUGCCCUCAGAGCUCGAGAACGUCUUCGGAUGCAGAGGAGGCAGGCUUCGGUGGCUCGAUAGCGCCAACGUCCACAACCUCCAAUGCAUCCCACCACAUGAUGAUGCCUGAAGAGCCUUGGUUUCUUG [U7C A29G G63U U81A U132C],-3.82
14,GACCAAACUGCCCUCAGAGCUCGAGAACAUCUUCGGAUGCAGAGGAGGCAGGCUUCGGUGGCGCGAUAUCGCCAACGUCCUCAACCUGCAAUGCAUCCCACCACAUGAUGAUGCCUGAAGAACCUUGGUUUUUUG [U7A G69U C88G G122A],-1.88
15,GACCAACCUGCCAUCAGAGCUCGAGAACAUCUUCGGAUGCAGAGGAGGCAGGUUUCGGUGGCGCGAUAGCGCCAACGUCCUCAACCUCCAAUGCAUCCCACCACAUGAUGAUGCCUGAAGAGCCUUGGUUUUUUG [U7C C13A C53U],-0.742
16,GACCAACCUGCCCUCAGAGCUCGAGAAUAUCUUCGGAUGCAGAGGAGGUCGGCUUCGGUGGCGCGAUAGCGCCAACGUCCUCAACCUCCAAUGCAUCCCACCACAUGAUGAUGCCUGAAAAACCUUGGUUUUUUG [U7C C28U C49U A50C G120A G122A],-2.33
17,GACCAAACUGCCCUCAGAGCUCGAGAACAUCUUCGGAUGCAGAAGAGGCAGGCUUCGGUGGCGCGAUGGCGCCAACGUCCUCAACCUCCAAUGCAUCCCACCACAUGAUGAUGCCUGAAGAGCCUUGGUUUUUUG [U7A G44A A68G],-5.14
18,GACCAACCUGCACUCAGAGCUCGAGAACAUCUUCGGAUGCAGAGGAGGCAGGCUUCGGUGGCGCGAUAGCGCCAACGUCCUCAACCUACAAUGCAACCCACCAUAUGAUGAUGCCUGAAGAGCCUUGGUUUUUUG [U7C C12A C88A U96A C104U],-1.43
19,GACCAAACAGACCUCAGAGCUCGAGAACAUCUUCGGAUGCACAGGAUGCAGGCUUCGGUGACGCGAUAGCGCCAACGUCCUCAACCUCCAAUGCAUCCCACCACAUGAUGAUGCCUGUAGAGCCUUGGUUUUUUG [U7A U9A C11A G42C G47U G61A A118U],-4.21
20,GACCAACCUGCCCUCAGAGCUCGAGAACAUCUUCGGAUGCAGAGGAGGCAGGCUUCGGUGGCGCGAUAGCGCCAACGUCCUCAACCUCCAAUGCAUCCCUCCACAUGAUGAUGCCUGAAGAGCCUUGGUUUUUUG [U7C A100U],-0.808
21,GACCAACAUGCCCUCAGAGCUCGAGAACAUCUUCGGAUGCAGAGGAGUCAGGCUUCGGUGGCUCGAUAGCGCCAACGUCCUCAACCUCCAAUGCAUCCCACCACAUGAUGAUGCCUGAAUAGUCUUGGUUUUUUG [U7C C8A G48U G63U G120U C123U],-0.338
